Test results published in the Human Domainome abundance scans (Beltran et al. 2025).

B1: Homeobox protein cut-like 2, residues 895 to 963; numbered along this chain, O14529 (parent)
chain: EVDTLELTRQVKEKLAKNGICQRIFGEKVLGLSQGSVSDMLSRPKPWSKLTQKGREPFIRMQLWLSDQL
B2: POU domain, class 6, transcription factor 2, residues 609 to 663; numbered along this chain, P78424 (parent)
chain: KRRTSFTPQALEILNAHFEKNTHPSGQEMTEIAEKLNYDREVVRVWFCNKRQALK

Variants of: B1
Assay: abundance fitness (aPCA) (normalised: wild type 0, dead -1); higher = more abundant; growth selection in yeast, the domain comes from the species named
Conditions: Homo sapiens

Abundance fitness, by site and new letter:
S42: D 0.039
T4: A -0.334
Q10: P -0.158
R55: F -0.569, C -0.625
Q22: T -0.151, D -0.457, V -0.116
T8: P -0.185, K -0.063
S36: Y -0.062
R9: M 0.006
L50: W -0.12
P44: K -0.134
K28: M -0.155, F -0.327
L41: S -0.234
D39: G 0.026
V29: A -0.36
K17: F -0.267
K12: F -0.748
L32: N -0.305

Variants of: B2
Assay: as above
Conditions: Homo sapiens

Abundance fitness of substitutions, site by site:
K1: A -0.19, D -0.161, E -0.632, G 0.157, H -0.309, I 0.111, L -0.465, N 0.043, R -0.269, S -0.275, T -0.077, V -0.776, W -0.267, Y -0.41
R2: A 0.038, C -0.345, E 0.108, F -0.056, G -0.034, H -0.144, I -0.059, M 0.064, N 0.095, P -0.118, Q 0.026, S 0.106, T 0.041, W -0.334
R3: A -0.136, C -0.236, D 0.054, E 0.043, F 0.053, G -0.035, I 0.136, K -0.009, L 0.057, M 0.01, N 0.208, P 0.004, Q -0.073, S 0.02, T -0.134, V -0.001, W -0.265
T4: A -0.09, C -0.058, D -0.083, E 0.045, F -0.333, G -0.089, H -0.028, I -0.364, K -0.123, L -0.063, M -0.148, Q -0.203, R -0.204, S -0.001, V -0.106, Y -0.15
S5: A 0.019, C -0.039, D -0.063, E 0.083, F -0.031, G 0.041, H -0.245, I 0.079, K 0.035, L -0.06, M -0.127, N -0.075, P -0.032, Q 0.221, R -0.113, T 0.12, V 0.015, W -0.11, Y -0.147
F6: A -0.354, C -0.15, D -0.246, E -0.191, G -0.326, H -0.272, I 0.092, L 0.135, M -0.042, N -0.267, P 0.039, Q -0.28, R -0.423, S -0.415, T -0.134, W -0.025, Y -0.187
T7: A -0.2, C -0.079, D -0.402, E 0.05, F -0.867, G -0.007, H -0.226, I -0.615, K -0.565, L -0.288, M -0.395, N -0.303, P 0.04, R -0.321, S -0.042, V -0.403, W -0.409, Y -0.637
P8: A 0.022, C -0.023, D 0.038, F -0.147, H -0.177, I -0.189, K -0.138, L -0.057, M 0.037, N -0.072, Q -0.365, R -0.148, S 0.05, T 0.477, V 0.004, W -0.394, Y -0.572
Q9: D -0.12, E -0.432, G -0.06, H -0.049, I -0.057, K -0.037, L -0.253, M -0.041, N -0.141, P -0.028, S -0.207, T -0.106, W -0.184
